The source of these data is the nanobody polyreactivity screen of Harvey et al. (2022).

This series can be described thus: yeast display, Sf9 membrane polyspecificity reagent, FACS + sequencing; frameworks hold sequencing errors. Summed up: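 Genes from sorted yeast were amplified by colony PCR, read by MiSeq 2 × 250 sequencing and filtered on CDR length. These cells carried a synthetic nanobody library in Saccharomyces cerevisiae BJ5465 and were sorted by FACS into low and high (top ~1%) gates on anti-HA and streptavidin fluorescence. Polyreactivity is labelled according to the gate of origin.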
Consider “QVQLVESGGGLVQAGGSLRLSCAASGSTFGNYAMGWYRQAPGKERELVAVITSAGSTYYADSVKGRFTISRDNAKNTVYLQMNSLKPDDTAVYYCNTGKHVRYYYWGQGTQVTVSS”, for which the “polyreactivity (PSR sort gate)” value was “low polyreactivity”.
Consider “QVQLVESGGGLVQAGGSLRLSCAASGSIFYHNAMGWYRQAPGKERELVAAISYRTGRTYYADSVKGRFTISRDNAKNTVYLQMNSLKPEDTAVYYCAAPYSWGQGTQVTVSS”, for which the “polyreactivity (PSR sort gate)” value is given as “high polyreactivity”.
Consider “QVQLVESAGGLVQEGGSLRLICAASARTIVIYSMGWYRQAPGKEREFVAAISRSGGSTYYADSVKGRFTISRDNQKNTVYLQMNSLQPVDTAVYYCNTRTPYWFKSDYWGQGTQVTVSS”, for which the “polyreactivity (PSR sort gate)” value is “low polyreactivity”.
“QVQLVESGGGLVQAGGSLRLSCAASGIILDRNAMGWYRQAPGKERELDAAINSIGGSTYYADSVKGRFTISRDNAKNTVYLQMNSLKPEDTAVYYCAAPSTSSYYWGQGTQVTVSS”: the “polyreactivity (PSR sort gate)” value was “low polyreactivity”.
Regarding “QVQLVESGGGLVQAGGSHRLSCAASGRIIWWYAMGWYRQAPGKEREFVASISSTGSTSYADSVKGRFTISRDNAKITVYFQMNILKPEDTAVYYCAKEGIRHQDYNLSNDYWGQGTHVTVSS”, the “polyreactivity (PSR sort gate)” value is listed as “low polyreactivity”.
In the case of “QVQLVESGGGLVQAGGSLRLSCDASGRTFIVYAMGWYRQEPGKERELVARISSGSRTSYADSVKGRFTISRDNAKNTVYLQMNSLKPEDTAVYYCNAREYLKPGVPYYSQQLDYWGQGTQVTVSS” it was “low polyreactivity”; in that of “QVQLVESGGGLVQAGGSLRLSCAASGSTFYYYTMGWYRQAPGKERELVAISWDGDSTYYADSVKGRFTISRDNAKNTVYLQMNSLKPEDTAVYYCAAADYYLPDDVSDYVDANFDYWGQGTQVTVSS”, “low polyreactivity”.
With “QVQLVESGGGLDQAGGSLRLSCAASGFTFAVYAMGWYRQAPAKERELVAAISRSGTRTYYADSVKGRFTISRDNAKNTVYLQMNSLKREDNAVYYCAADNYRHGYEYWGLGTQVTVSS” the entry was “high polyreactivity”.
In the case of “QVQLVESGGGLVQAGGSLRLSCAASGSIFAINAMGWYRQAPGKERELVAGITSGGSTYYADSVKGRFTISRDNAKNTVYLQMNSLKPEDTAVYYCAVQVVRSWLVTYYYWGQGTQVTVSS” it was “high polyreactivity”.
“QVQLVESGGGLVQAGGSLRLSCAASGRIFGPYAMGWYRQAPGKERELVAAITQRGGSTSYADSVKGRFTISRDNAKKTVYLQMNSLKPEDTAVYYCNVLSYGSIPRRGYYYVWGDYWGQGTQVTVSS”: the “polyreactivity (PSR sort gate)” value is “high polyreactivity”.
With “QVQLVESGGGLVQAGGSHRLSCAASGSTFDYYAMGWYRQAPGKEREFVASINWNGARTYYADSVKGRFTNSRDNAKNTVYLQMNSLKPEDTAVYYCAKISRTYYRYDYWGQGTQVTVSS” the entry was “high polyreactivity”; with “QVQLVESGGGLVQAGGSLRLSCAASVFIFGLYAMGWYRQAPGKERELVAAISRSGGSTYYADSVKGRFTISRDNEKNTVYLQMNSLKPEDTAVYYCAKRASPRQAGPIYDSWGQGTQVTVSS”, “high polyreactivity”; with “QVQLVESGGGLVQAGGSLRLSCAASGRILFGYAMGWYRQAPGKERELVADITSTGSTNYADSVKGRFTISRDNAKNTVYLQMNSLKPEDTAVYYCNARRESYYQRYRVDYWGQGTQVNVSS”, “low polyreactivity”.
Turning to “QVQLVESGGGLVQAGGSLRLSCAASGIIFGSNVMGWYREAPGIERELVAAINYGGGSTYYADSVKGRFTISRDNAKKTVYLQMNSLKPEDTAVYYCAARGSRDYRYDYWGQGTQVTVSS”, the “polyreactivity (PSR sort gate)” value was “low polyreactivity”.
“QVQLVESGGGLVQAGGSLRLSCAASGFTFYYYAMGWYRQAPGKERELVAAINRSGGSTYYADSVKGRFTISRDNAKNTVYLQMNSLKPEDTAVYYCNKRLLVSRSSAQPYGYWGQGTQVTVSS”: the “polyreactivity (PSR sort gate)” value is “high polyreactivity”.
With “QVQLVESGGGLVQAGGSLRLSCAASGFIFKRYAMGWYRQAPGKERELVAAITSGGSTHYADSVKGRFTISRDNAKNTVYFQMNSLKPEDTAVYYCASRRYKWGVRYDYWGQGTQVTVSS” the entry was “high polyreactivity”; with “QAQLVESGGGLVQAGGRLRLICAASGSIFAGYAMGWSRQAPGKERELVATITSSSRTNYADSVKGRFSISRDNAKNNVYLQMNILKPEETAVSYCAARGRSVIDVYRMYYWGQGTKVTVSS”, “high polyreactivity”.
Turning to “QVQLVESGGGLVQAGGSLRLSCAASGFILPWYVMGWYRQAPGKERELVAAISGTGGSTYYADSVKGRFTISRDNAKNTVYLQMNSLKPEDTAVYYCAAGAFYAGYYWEFYYWGQGTQVTVSS”, the “polyreactivity (PSR sort gate)” value is listed as “high polyreactivity”.
Take “QVQLVESGGGLVQAGGSLRLSCAASGSILYRYAMGWYRQAPGKERELVAGISKTGSSTYYADSVKGRFTISRDNAKNTVYLQMNSLKPEDTAVYYCNVRHGYSGKDYRYDYWGQGTQVTVSS”: the “polyreactivity (PSR sort gate)” value is given as “low polyreactivity”.
In the case of “QVQLVESGGGLVQAGGSLRLSCAASGLIFWYYAMGWYRQAPGKERELVATISWSGGSTYYADSVKGRFTISRDNAKNTVYLQMNSLKPEDTAVYYCAAVGFRAYVARGYWYYYWGQGTQVTVSS” it was “high polyreactivity”; in that of “QVQLVESGGGLVQAGGSLRLSCAASGSIFRRNAMGWYRQAPGKERELVAAIRSGGGTNYADSVKGRFTISRDNAKNTVYLQMNSLKPEDTAVYYCAAVYERYYLFEYDYWGQGTQVTVSS”, “low polyreactivity”; in that of “QVQLVESGGGLVQAGGSLRLSCAASGIIFPYYTMGWYRQAPGKERELVARITNGGRTYYADSVKGRFTISRDNAKNTVYLQMISLKPEDTAVYYCNAGRYYIGGYWGQGTQVTVSS”, “high polyreactivity”.
With “QVQQQESGGGLVQAGGSLRRSCAASGSIFSHWAMGWYRQTPGKERELVASITAGGNNNYADSVKGRFTISRDNAKNTVYLPMNSLKPEDTAVYYCNRRYPGPDSFEHYYYYRYDYWGQGTQVTVSS” the entry was “low polyreactivity”; with “QVQLVESGGGLVQAGGSLRLSCAASGIIFGRYTMGWYRQAPGKERELVAAITSSGITYYADSVKGRFTISRDNAKNTVYLQMNSLKPEETAVYYCNADYSIPGYYWPYDYWGQGTQVTVSS”, “low polyreactivity”; with “QVQLVESGGGLVQAGGSLRLSCAASGSTFGWYALGWYRQAPGKERELVAAIRSNGGSTYYADSVKGRFTLSRDNAKNTVYLQINSLKPEDTAVYYCAARGSPSKHHWYDYWGQGTQVTVSS”, “low polyreactivity”.
In the case of “QVQLVEAGGGLVQAGGSLRLSCAASGNTLYGNAMGWYLQAPGKERELVAAISWSGGSTSYADSVKGRFTISRDNAENTVYLQMNSLKPEDTAVYYCATQGFYKDYSRYDYWGQGTQVTVSS” it was “low polyreactivity”.
With “QVQLVESGGGLVQAGGSLRLSCAASGSIFVRNAMGWYRQSPGKERELVAAITSGDSTNYADSVKGRFTISRDNAKNTVYLQMYCLKPEDTAVYYCNAQIYSVYRDGRDIYKYDYWGQGTQVTVSS”, the “polyreactivity (PSR sort gate)” value is given as “low polyreactivity”.
“QVQLVESGGGLVQAGGSLRLSCAASGSIFSNYDMGWYRQAPGKERELVAGITRSGTNTYYADSVKGRFTISRDNAKNTVYLKMNRLKPEDTAVYYCAAAIRPGMDYWGQGTQVTVSS”: the “polyreactivity (PSR sort gate)” value is “high polyreactivity”.
Take “QVQLVESGGGLVQAGGSLRLSCAASGSIFGLYAMGWYRQAPGKEREFVASITYSGGSTYYADSVKGRFTISRDNAKNTVYLQMNSLKPEDTAVYYCAAESYWGYDYWGQGTQVTVSS”: the “polyreactivity (PSR sort gate)” value was “high polyreactivity”.
With “QVQLVESGGGLVQAGGSLRLSCAASGRTFDDYAMGGYSQAPGKERELVAAISWSGSSTYYADSVKGRFTISRDNAKNTVYLQMNSLKPEDTAVYYCAADSIRTLLTGNTVYIWYGYWGQGNQVTVSS” the entry was “low polyreactivity”.
